The record followed here is patent US20260015399A1 (Boehringer Ingelheim, published 2026).

*1 amine or outer side, *2 acyl side, *3 side chain or, on linkers, in order; H or OH if unused. Side-chain parts run from the residue outwards. The star is where a group is joined. C18 diacid = O=C(O)CCCCCCCCCCCCCCCCC(=O)*; γGlu = O=C(O)[C@H](CCC(=O)[*:2])N[*:1]; Isovaleryl = CC(C)CC(=O)*; Ahx = NCCCCCC(=O)O

B1: Compound 96 (peptide)
peptide: Isovaleryl-APEK([Ahx-γGlu-C18 diacid])PEESATPEELQRYYVSLRHYYNWLTRQRY-NH2
SMILES: CC(C)CC(=O)N[C@@H](C)C(=O)N1CCC[C@H]1C(=O)N[C@@H](CCC(=O)O)C(=O)N[C@@H](CCCCNC(=O)CCCCCNC(=O)CC[C@H](NC(=O)CCCCCCCCCCCCCCCCC(=O)O)C(=O)O)C(=O)N1CCC[C@H]1C(=O)N[C@@H](CCC(=O)O)C(=O)N[C@@H](CCC(=O)O)C(=O)N[C@@H](CO)C(=O)N[C@@H](C)C(=O)N[C@H](C(=O)N1CCC[C@H]1C(=O)N[C@@H](CCC(=O)O)C(=O)N[C@@H](CCC(=O)O)C(=O)N[C@@H](CC(C)C)C(=O)N[C@@H](CCC(N)=O)C(=O)N[C@@H](CCCNC(=N)N)C(=O)N[C@@H](Cc1ccc(O)cc1)C(=O)N[C@@H](Cc1ccc(O)cc1)C(=O)N[C@H](C(=O)N[C@@H](CO)C(=O)N[C@@H](CC(C)C)C(=O)N[C@@H](CCCNC(=N)N)C(=O)N[C@@H](Cc1c[nH]cn1)C(=O)N[C@@H](Cc1ccc(O)cc1)C(=O)N[C@@H](Cc1ccc(O)cc1)C(=O)N[C@@H](CC(N)=O)C(=O)N[C@@H](Cc1c[nH]c2ccccc12)C(=O)N[C@@H](CC(C)C)C(=O)N[C@H](C(=O)N[C@@H](CCCNC(=N)N)C(=O)N[C@@H](CCC(N)=O)C(=O)N[C@@H](CCCNC(=N)N)C(=O)N[C@@H](Cc1ccc(O)cc1)C(N)=O)[C@@H](C)O)C(C)C)[C@@H](C)O
B2: Compound 102 (peptide)
peptide: Isovaleryl-APEK([Ahx-γGlu-C18 diacid])PEEDATLEELQRYYVSLRHYYNWLTRQRY-NH2
SMILES: CC(C)CC(=O)N[C@@H](C)C(=O)N1CCC[C@H]1C(=O)N[C@@H](CCC(=O)O)C(=O)N[C@@H](CCCCNC(=O)CCCCCNC(=O)CC[C@H](NC(=O)CCCCCCCCCCCCCCCCC(=O)O)C(=O)O)C(=O)N1CCC[C@H]1C(=O)N[C@@H](CCC(=O)O)C(=O)N[C@@H](CCC(=O)O)C(=O)N[C@@H](CC(=O)O)C(=O)N[C@@H](C)C(=O)N[C@H](C(=O)N[C@@H](CC(C)C)C(=O)N[C@@H](CCC(=O)O)C(=O)N[C@@H](CCC(=O)O)C(=O)N[C@@H](CC(C)C)C(=O)N[C@@H](CCC(N)=O)C(=O)N[C@@H](CCCNC(=N)N)C(=O)N[C@@H](Cc1ccc(O)cc1)C(=O)N[C@@H](Cc1ccc(O)cc1)C(=O)N[C@H](C(=O)N[C@@H](CO)C(=O)N[C@@H](CC(C)C)C(=O)N[C@@H](CCCNC(=N)N)C(=O)N[C@@H](Cc1c[nH]cn1)C(=O)N[C@@H](Cc1ccc(O)cc1)C(=O)N[C@@H](Cc1ccc(O)cc1)C(=O)N[C@@H](CC(N)=O)C(=O)N[C@@H](Cc1c[nH]c2ccccc12)C(=O)N[C@@H](CC(C)C)C(=O)N[C@H](C(=O)N[C@@H](CCCNC(=N)N)C(=O)N[C@@H](CCC(N)=O)C(=O)N[C@@H](CCCNC(=N)N)C(=O)N[C@@H](Cc1ccc(O)cc1)C(N)=O)[C@@H](C)O)C(C)C)[C@@H](C)O
B3: Compound 100 (peptide)
peptide: Isovaleryl-APEK([Ahx-γGlu-C18 diacid])PEADATPEELQRYYIALRHYYNWLTRQRY-NH2
SMILES: CC[C@H](C)[C@H](NC(=O)[C@H](Cc1ccc(O)cc1)NC(=O)[C@H](Cc1ccc(O)cc1)NC(=O)[C@H](CCCNC(=N)N)NC(=O)[C@H](CCC(N)=O)NC(=O)[C@H](CC(C)C)NC(=O)[C@H](CCC(=O)O)NC(=O)[C@H](CCC(=O)O)NC(=O)[C@@H]1CCCN1C(=O)[C@@H](NC(=O)[C@H](C)NC(=O)[C@H](CC(=O)O)NC(=O)[C@H](C)NC(=O)[C@H](CCC(=O)O)NC(=O)[C@@H]1CCCN1C(=O)[C@H](CCCCNC(=O)CCCCCNC(=O)CC[C@H](NC(=O)CCCCCCCCCCCCCCCCC(=O)O)C(=O)O)NC(=O)[C@H](CCC(=O)O)NC(=O)[C@@H]1CCCN1C(=O)[C@H](C)NC(=O)CC(C)C)[C@@H](C)O)C(=O)N[C@@H](C)C(=O)N[C@@H](CC(C)C)C(=O)N[C@@H](CCCNC(=N)N)C(=O)N[C@@H](Cc1c[nH]cn1)C(=O)N[C@@H](Cc1ccc(O)cc1)C(=O)N[C@@H](Cc1ccc(O)cc1)C(=O)N[C@@H](CC(N)=O)C(=O)N[C@@H](Cc1c[nH]c2ccccc12)C(=O)N[C@@H](CC(C)C)C(=O)N[C@H](C(=O)N[C@@H](CCCNC(=N)N)C(=O)N[C@@H](CCC(N)=O)C(=O)N[C@@H](CCCNC(=N)N)C(=O)N[C@@H](Cc1ccc(O)cc1)C(N)=O)[C@@H](C)O
B4: Compound 97 (peptide)
peptide: Isovaleryl-APEK([Ahx-γGlu-C18 diacid])PEEDATPEEIQRYYLSLRHYYNWLTRQRY-NH2
SMILES: CC[C@H](C)[C@H](NC(=O)[C@H](CCC(=O)O)NC(=O)[C@H](CCC(=O)O)NC(=O)[C@@H]1CCCN1C(=O)[C@@H](NC(=O)[C@H](C)NC(=O)[C@H](CC(=O)O)NC(=O)[C@H](CCC(=O)O)NC(=O)[C@H](CCC(=O)O)NC(=O)[C@@H]1CCCN1C(=O)[C@H](CCCCNC(=O)CCCCCNC(=O)CC[C@H](NC(=O)CCCCCCCCCCCCCCCCC(=O)O)C(=O)O)NC(=O)[C@H](CCC(=O)O)NC(=O)[C@@H]1CCCN1C(=O)[C@H](C)NC(=O)CC(C)C)[C@@H](C)O)C(=O)N[C@@H](CCC(N)=O)C(=O)N[C@@H](CCCNC(=N)N)C(=O)N[C@@H](Cc1ccc(O)cc1)C(=O)N[C@@H](Cc1ccc(O)cc1)C(=O)N[C@@H](CC(C)C)C(=O)N[C@@H](CO)C(=O)N[C@@H](CC(C)C)C(=O)N[C@@H](CCCNC(=N)N)C(=O)N[C@@H](Cc1c[nH]cn1)C(=O)N[C@@H](Cc1ccc(O)cc1)C(=O)N[C@@H](Cc1ccc(O)cc1)C(=O)N[C@@H](CC(N)=O)C(=O)N[C@@H](Cc1c[nH]c2ccccc12)C(=O)N[C@@H](CC(C)C)C(=O)N[C@H](C(=O)N[C@@H](CCCNC(=N)N)C(=O)N[C@@H](CCC(N)=O)C(=O)N[C@@H](CCCNC(=N)N)C(=O)N[C@@H](Cc1ccc(O)cc1)C(N)=O)[C@@H](C)O
B5: Compound 107 (peptide)
peptide: Isovaleryl-APEK([Ahx-γGlu-C18 diacid])PEEDAEPEETQRYYVSLRHYYNWLTRQRY-NH2
SMILES: CC(C)CC(=O)N[C@@H](C)C(=O)N1CCC[C@H]1C(=O)N[C@@H](CCC(=O)O)C(=O)N[C@@H](CCCCNC(=O)CCCCCNC(=O)CC[C@H](NC(=O)CCCCCCCCCCCCCCCCC(=O)O)C(=O)O)C(=O)N1CCC[C@H]1C(=O)N[C@@H](CCC(=O)O)C(=O)N[C@@H](CCC(=O)O)C(=O)N[C@@H](CC(=O)O)C(=O)N[C@@H](C)C(=O)N[C@@H](CCC(=O)O)C(=O)N1CCC[C@H]1C(=O)N[C@@H](CCC(=O)O)C(=O)N[C@@H](CCC(=O)O)C(=O)N[C@H](C(=O)N[C@@H](CCC(N)=O)C(=O)N[C@@H](CCCNC(=N)N)C(=O)N[C@@H](Cc1ccc(O)cc1)C(=O)N[C@@H](Cc1ccc(O)cc1)C(=O)N[C@H](C(=O)N[C@@H](CO)C(=O)N[C@@H](CC(C)C)C(=O)N[C@@H](CCCNC(=N)N)C(=O)N[C@@H](Cc1c[nH]cn1)C(=O)N[C@@H](Cc1ccc(O)cc1)C(=O)N[C@@H](Cc1ccc(O)cc1)C(=O)N[C@@H](CC(N)=O)C(=O)N[C@@H](Cc1c[nH]c2ccccc12)C(=O)N[C@@H](CC(C)C)C(=O)N[C@H](C(=O)N[C@@H](CCCNC(=N)N)C(=O)N[C@@H](CCC(N)=O)C(=O)N[C@@H](CCCNC(=N)N)C(=O)N[C@@H](Cc1ccc(O)cc1)C(N)=O)[C@@H](C)O)C(C)C)[C@@H](C)O
B6: Compound 105 (peptide)
peptide: Isovaleryl-APEK([Ahx-γGlu-C18 diacid])PEEDATQEELQRYYVSLRHYYNWLTRQRY-NH2
SMILES: CC(C)CC(=O)N[C@@H](C)C(=O)N1CCC[C@H]1C(=O)N[C@@H](CCC(=O)O)C(=O)N[C@@H](CCCCNC(=O)CCCCCNC(=O)CC[C@H](NC(=O)CCCCCCCCCCCCCCCCC(=O)O)C(=O)O)C(=O)N1CCC[C@H]1C(=O)N[C@@H](CCC(=O)O)C(=O)N[C@@H](CCC(=O)O)C(=O)N[C@@H](CC(=O)O)C(=O)N[C@@H](C)C(=O)N[C@H](C(=O)N[C@@H](CCC(N)=O)C(=O)N[C@@H](CCC(=O)O)C(=O)N[C@@H](CCC(=O)O)C(=O)N[C@@H](CC(C)C)C(=O)N[C@@H](CCC(N)=O)C(=O)N[C@@H](CCCNC(=N)N)C(=O)N[C@@H](Cc1ccc(O)cc1)C(=O)N[C@@H](Cc1ccc(O)cc1)C(=O)N[C@H](C(=O)N[C@@H](CO)C(=O)N[C@@H](CC(C)C)C(=O)N[C@@H](CCCNC(=N)N)C(=O)N[C@@H](Cc1c[nH]cn1)C(=O)N[C@@H](Cc1ccc(O)cc1)C(=O)N[C@@H](Cc1ccc(O)cc1)C(=O)N[C@@H](CC(N)=O)C(=O)N[C@@H](Cc1c[nH]c2ccccc12)C(=O)N[C@@H](CC(C)C)C(=O)N[C@H](C(=O)N[C@@H](CCCNC(=N)N)C(=O)N[C@@H](CCC(N)=O)C(=O)N[C@@H](CCCNC(=N)N)C(=O)N[C@@H](Cc1ccc(O)cc1)C(N)=O)[C@@H](C)O)C(C)C)[C@@H](C)O

The target of this assay is T1, human NPY2 receptor (human, UniProt P49146 1-381).
T1 construct: whole, on cells; also called hNPY2-R; hNPY2R
T1 sequence (looked up): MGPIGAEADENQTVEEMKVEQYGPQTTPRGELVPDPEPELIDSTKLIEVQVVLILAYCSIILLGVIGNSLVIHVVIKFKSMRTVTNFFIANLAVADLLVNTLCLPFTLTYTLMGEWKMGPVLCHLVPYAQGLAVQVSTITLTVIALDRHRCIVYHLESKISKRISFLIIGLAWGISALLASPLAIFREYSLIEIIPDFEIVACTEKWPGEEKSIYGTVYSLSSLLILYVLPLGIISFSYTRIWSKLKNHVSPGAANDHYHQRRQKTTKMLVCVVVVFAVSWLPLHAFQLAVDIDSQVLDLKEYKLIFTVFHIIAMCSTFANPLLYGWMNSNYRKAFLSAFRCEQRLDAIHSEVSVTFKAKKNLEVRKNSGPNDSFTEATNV
Put plainly: RLB: displacement of 125I-PYY(1-36) from hNPY2R membranes.
B1 gave a Ki of 3.06 nM. In the case of B2, affinity was put at a Ki of 7.15 nM. To B3 belongs 1.01 nM; to B4, 4.23 nM. Regarding B5, the affinity corresponds to a Ki of 5.13 nM. The molecule B6 had a Ki of 5.97 nM.
